Source: patent publication US20190040149A1 (Innovent, published 2019)

Tests used:
[1] = biological target: T1, human PD-1 on cells (CHO cells; T cells in the mixed lymphocyte reaction) (human, UniProt Q15116 25-288); assay: flow cytometry on CHO cells with human PD-1 (n=1)
T1 construct: also called human PD-1 on CHO cells
Procedure: (§1) Cells are then washed 3×, and are incubated with a secondary antibody (PE-labelled, at final concentration of 5 μg/ml) in PBS 1% BSA for 30 min on ice (protected from light). Cells are washed 3× and analyzed via flow cytometry. Flow cytometry is performed on an Accuri C6 system (BD Biosciences) and MFIs are calculated on the C6 software. EC50 s are calculated on Graphpad software.

[2] = biological target: T2, human PD-1 (soluble antigen of the MSD assay, b-PD-1 monomer) (human, UniProt Q15116 25-170, limits assumed, biotinylated (b-PD-1), site not stated); assay: MSD solution equilibrium titration, avid KD
T2 construct: The antigen format of the 'avid' measurement is not described
Procedure: (§2) Equilibrium affinity measurements are performed as previously described (Estep, P., et al., MAbs, 2013. 5(2): p. 270-8). Solution equilibrium titrations (SET) are performed in PBS+0.1% IgG-Free BSA (PBSF) where antigen (b-PD-1 monomer) is held constant at 10-100 pM and is incubated with 3- to 5-fold serial dilutions of Fab or mAbs starting at 5-100 nM (experimental condition is sample dependent). Antibodies diluted at 20 nM in PBS are coated onto standard bind MSD-ECL plates overnight at 4° C. or at room temperature for 30 min. Plates are blocked with BSA for 30 min whilst shaking at 700 rpm. Plates are then washed 3× with wash buffer (PBSF+0.05% Tween 20). SET samples are applied and incubated on the plates for 150 s with shaking at 700 rpm followed by one wash. Antigen captured on a plate is detected with 250 ng/mL sulfotag-labeled streptavidin in PBSF by incubation on the plate for 3 min. The plates are washed three times with wash buffer and are then read on the MSD Sector Imager 2400 instrument using 1× Read Buffer T with surfactant. The percent free antigen is plotted as a function of titrated antibody in Prism and fit to a quadratic equation to extract the KD. To improve throughput, liquid handling robots are used throughout MSD-SET experiments, including for SET sample preparation.

[3] = biological target: T3, murine PD-1 (soluble antigen of the MSD assay) (mouse, UniProt Q02242 25-169, limits assumed); assay: MSD solution equilibrium titration, avid KD
T3 construct: also called mouse PD-1
T3 sequence: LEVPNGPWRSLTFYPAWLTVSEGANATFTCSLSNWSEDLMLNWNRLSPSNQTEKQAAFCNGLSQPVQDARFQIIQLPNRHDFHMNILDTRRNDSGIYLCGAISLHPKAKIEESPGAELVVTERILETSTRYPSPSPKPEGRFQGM
Procedure: as §2

[4] = biological target: T1, human PD-1 on cells (CHO cells; T cells …); assay: cell-based or functional assay
human PD-1_HIS = biological target: T4, human PD-1_HIS (human, UniProt Q15116 25-167, limits assumed); assay: bio-layer interferometry (ForteBio), human PD-1_HIS in solution, IgG on sensor tip
T4 construct: not shown: His tag
Procedure: Briefly, ForteBio affinity measurements were performed by loading IgGs online onto AHQ sensors. Sensors were equilibrated off-line in assay buffer for 30 min and then monitored on-line for 60 seconds for baseline establishment. Sensors with loaded IgGs were exposed to 100 nM antigen for 5 min, afterwards they were transferred to assay buffer for 5 min for off-rate measurement. Kinetics was analyzed using the 1:1 binding model.

[5] = biological target: T2, human PD-1 (soluble antigen of the MSD …); assay: MSD solution equilibrium titration, monovalent KD
Procedure: as §2

[6] = biological target: T3, murine PD-1 (soluble antigen of the MSD …); assay: MSD solution equilibrium titration, monovalent KD
Procedure: as §2

murine PD-1 on CHO cells = biological target: T5, murine PD-1 on CHO cells (mouse, UniProt Q02242 25-288); assay: flow cytometry on CHO cells with murine PD-1
T5 sequence: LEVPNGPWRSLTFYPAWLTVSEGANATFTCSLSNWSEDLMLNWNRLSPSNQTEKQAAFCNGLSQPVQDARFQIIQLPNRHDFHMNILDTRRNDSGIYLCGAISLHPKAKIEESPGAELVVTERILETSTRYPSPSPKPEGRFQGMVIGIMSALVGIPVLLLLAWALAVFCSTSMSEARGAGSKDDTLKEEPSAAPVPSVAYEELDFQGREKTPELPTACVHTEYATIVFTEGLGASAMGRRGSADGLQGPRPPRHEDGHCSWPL
Procedure: as §1

[7] = biological target: T1, human PD-1 on cells (CHO cells; T cells …); assay: cell-based or functional assay; remark: listed apart in the source
[8] = biological target: T1, human PD-1 on cells (CHO cells; T cells …); assay: flow cytometry, remaining PD-L2-FITC signal after 100 nM antibody; competitor PD-L2-FITC
Procedure: CHO cells 0.2×10⁶ are incubated with the experimental antibody (100 nM) for 30 min in PBS 1% BSA on ice. […] Cells are washed 3× and analyzed via flow cytometry. Flow cytometry is performed on an Accuri C6 system (BD Biosciences) and MFIs are calculated on the C6 software. EC50 s are calculated on Graphpad software.

T1 sequence (Q15116 25-288 limits assumed): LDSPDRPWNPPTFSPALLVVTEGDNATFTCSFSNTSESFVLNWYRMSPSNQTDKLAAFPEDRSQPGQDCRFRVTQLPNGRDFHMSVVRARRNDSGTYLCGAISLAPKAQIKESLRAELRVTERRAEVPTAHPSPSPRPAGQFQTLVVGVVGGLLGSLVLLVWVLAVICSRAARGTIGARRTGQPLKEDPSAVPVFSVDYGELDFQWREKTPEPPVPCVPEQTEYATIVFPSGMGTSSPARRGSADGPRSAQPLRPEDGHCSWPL
T2 sequence (Q15116 25-170 limits assumed): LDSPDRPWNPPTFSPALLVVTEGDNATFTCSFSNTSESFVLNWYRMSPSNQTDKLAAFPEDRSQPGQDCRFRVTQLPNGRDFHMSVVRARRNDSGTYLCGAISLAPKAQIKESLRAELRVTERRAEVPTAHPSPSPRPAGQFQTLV
T4 sequence (Q15116 25-167 limits assumed): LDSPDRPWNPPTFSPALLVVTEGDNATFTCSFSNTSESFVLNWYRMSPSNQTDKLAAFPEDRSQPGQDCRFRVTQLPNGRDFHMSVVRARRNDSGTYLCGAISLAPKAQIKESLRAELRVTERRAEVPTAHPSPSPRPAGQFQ

B1: Antibody E, IgG1 format expressed in yeast (antibody, V domains shown)
VH: QVQLVQSGAEVKKPGASVKVSCKASGYTFTSNYMHWVRQAPGQGLEWMGIINPSEGSTGYAQKFQGRVTMTRDTSTSTVYMELSSLRSEDTAVYYCAKEGVADGYGLVDVWGQGTMVTVSS
VL: EIVLTQSPATLSLSPGERATLSCRASQSVSSYLAWYQQKPGQAPRLLIYDASKRATGIPARFSGSGSGTDFTLTISSLEPEDFAVYYCDQRNNWPLTFGGGTKVEIK
notes: Tested in IgG1 format, expressed in yeast
EC50 [1]: 4.59 nM | Kd [2]: 0.022 nM | Kd [3]: 0.33 nM | IL-2 in supernatant, 0.01 nM IgG [4]: 580 pg/mL | IL-2 in supernatant, 0.1 nM IgG [4]: 614 pg/mL | IL-2 in supernatant, 1 nM IgG [4]: 978 pg/mL | IL-2 in supernatant, 10 nM IgG [4]: 1360 pg/mL | IL-2 in supernatant, 100 nM IgG [4]: 1980 pg/mL | IL-2 secretion fold change vs. IgG control, 0.01 nM IgG [4]: 1.13 fold | IL-2 secretion fold change vs. IgG control, 0.1 nM IgG [4]: 1.21 fold | IL-2 secretion fold change vs. IgG control, 1 nM IgG [4]: 1.95 fold | IL-2 secretion fold change vs. IgG control, 10 nM IgG [4]: 2.61 fold | IL-2 secretion fold change vs. IgG control, 100 nM IgG [4]: 3.2 fold | Kd (human PD-1_HIS): 1.2 nM | Kd [5]: 0.091 nM | Kd [6]: 1.1 nM | EC50 (murine PD-1 on CHO cells): 5.04 nM | IFNg secretion fold change vs. IgG control, 0.01 nM IgG [7]: 0.96 fold | IFNg secretion fold change vs. IgG control, 0.1 nM IgG [7]: 1.26 fold | IFNg secretion fold change vs. IgG control, 1 nM IgG [7]: 1.86 fold | IFNg secretion fold change vs. IgG control, 10 nM IgG [7]: 2.01 fold | IFNg secretion fold change vs. IgG control, 100 nM IgG [7]: 1.76 fold | IFNγ in supernatant, 0.01 nM IgG [7]: 14300 pg/mL | IFNγ in supernatant, 0.1 nM IgG [7]: 13800 pg/mL | IFNγ in supernatant, 1 nM IgG [7]: 21600 pg/mL | IFNγ in supernatant, 10 nM IgG [7]: 27100 pg/mL | IFNγ in supernatant, 100 nM IgG [7]: 26300 pg/mL | MFI (PD-L2-FITC) [8]: 38700 MFI
